Substrate in the data set: CCCCn1cc[n+](Cc2cc(=O)oc3cc(C)cc(C)c23)c1
The following applies: Homo sapiens.

Consider one protein from ChEMBL document CHEMBL3758119, “Functionalized imidazolium and benzimidazolium salts as paraoxonase 1 inhibitors: Synthesis, characterization and molecular docking studies” (Bioorg Med Chem, 2016).

Description: Activity of human serum PON1 using paraoxon as substrate by Lineweaver-Burk plot analysis

B1: Serum paraoxonase/arylesterase 1 (Homo sapiens), P27169 (protein)
chain: MAKLIALTLLGMGLALFRNHQSSYQTRLNALREVQPVELPNCNLVKGIETGSEDLEILPNGLAFISSGLKYPGIKSFNPNSPGKILLMDLNEEDPTVLELGITGSKFDVSSFNPHGISTFTDEDNAMYLLVVNHPDAKSTVELFKFQEEEKSLLHLKTIRHKLLPNLNDIVAVGPEHFYGTNDHYFLDPYLQSWEMYLGLAWSYVVYYSPSEVRVVAEGFDFANGINISPDGKYVYIAELLAHKIHVYEKHANWTLTPLKSLDFNTLVDNISVDPETGDLWVGCHPNGMKIFFYDSENPPASEVLRIQNILTEEPKVTQVYAENGTVLQGSTVASVYKGKLLIGTVFHKALYCEL
With B1, the Km was determined as 40.6 µM.

As a reminder, the Km is the substrate concentration at which the rate is half of its maximum.
